# Laboratory results: publication PMC5458255
# Biological target: CCR7 receptor (human (endogenous in NKL3 and MDA-MB-231)) (UniProt P32248)
# Sequence of UniProt P32248 (P32248 25-378): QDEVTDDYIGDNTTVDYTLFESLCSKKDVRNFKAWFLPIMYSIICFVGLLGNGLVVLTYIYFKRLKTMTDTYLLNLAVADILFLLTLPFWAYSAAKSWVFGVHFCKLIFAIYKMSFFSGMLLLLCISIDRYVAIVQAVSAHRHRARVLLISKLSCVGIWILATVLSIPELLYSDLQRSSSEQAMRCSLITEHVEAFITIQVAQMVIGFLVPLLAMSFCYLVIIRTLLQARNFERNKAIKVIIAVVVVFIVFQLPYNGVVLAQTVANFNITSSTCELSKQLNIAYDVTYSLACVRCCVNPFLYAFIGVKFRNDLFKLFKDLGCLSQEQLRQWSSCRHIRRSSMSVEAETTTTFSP
substance,measurement,value
recombinant human CCL21 (from UniProt O00585 24-134) (ligand),"adhesion under flow of NKL3 cells to HPLNEC.B3 endothelial cells treated with CCL21, hypoxia; total inhibition by anti-CCR7 neutralizing antibodies",2.5 fold
